# Measurements from patent publication US20200024330A1.
# Columns and labels:
# Experiment in all cases: cell-based or functional assay
# [1] = biological target: HIV-1 Env of isolate MGRM-D-012 (HIV-1)
# [2] = biological target: HIV-1 MGRM-A-012 envelope glycoprotein (Env) (HIV-1)
# [3] = biological target: HIV-1 Env of isolate MGRM-G-017 (clade G pseudovirus) (HIV-1)
# [4] = biological target: HIV-1 94UG103 envelope protein (Env) on pseudovirus (HIV-1)
# [5] = biological target: HIV-1 MGRM-A-009 envelope glycoprotein (Env) (HIV-1)
# [6] = biological target: HIV-1 Env of pseudovirus MGRM-Chronic-B-002, clade B (HIV-1)
# [7] = biological target: HIV-1 IAVI-C22 envelope protein (Env) on pseudovirus (HIV-1)
# [8] = biological target: HIV-1 Env of isolate MGRM-G-015 (subtype G) (HIV-1)
# [9] = biological target: HIV-1 MGRM-C-015 Env (HIV-1)
# [10] = biological target: HIV-1 Env of isolate MGRM-G-014 (clade G pseudovirus) (HIV-1)
# [11] = biological target: HIV-1 MGRM-C-022 Env (HIV-1)
# [12] = biological target: HIV-1 Env of isolate MGRM-D-016 (clade D) (HIV-1)
# [13] = biological target: HIV-1 Env of isolate MG RM-D-013 (subtype D) (HIV-1)
# [14] = biological target: HIV-1 Env of isolate MGRM-C-015 (pseudovirus) (HIV-1 isolate MGRM-C-015, subtype C)
# [15] = biological target: HIV-1 Env of isolate MGRM-C-024 (pseudovirus) (HIV-1 isolate MGRM-C-024, subtype C)
# [16] = biological target: HIV-1 Env of isolate MGRM-C-004 (pseudovirus) (HIV-1 isolate MGRM-C-004, subtype C)
# [17] = biological target: HIV-1 Env of isolate MG RM-D-020 (subtype D) (HIV-1)
# [18] = biological target: HIV-1 Env of isolate MGRM-C-028 (pseudovirus) (HIV-1 isolate MGRM-C-028, subtype C)
# [19] = biological target: HIV-1 Env of isolate MGRM-C-014 (pseudovirus) (HIV-1 isolate MGRM-C-014, subtype C)
# [20] = biological target: HIV-1 93TH305 Env (pseudovirus) (HIV-1)
# [21] = biological target: HIV-1 Env of isolate 98CN006 (subtype CRF08 BC) (HIV-1)
# [22] = biological target: HIV-1 Env of isolate MGRM-C-002 (pseudovirus) (HIV-1 isolate MGRM-C-002, subtype C)
# [23] = biological target: HIV-1 Env of isolate MG RM-D-005 (subtype D) (HIV-1)
# [24] = biological target: HIV-1 Env of isolate MGRM-G-025 (HIV-1)
# [25] = biological target: HIV-1 Env of isolate MGRM-F1-014 (HIV-1)
# [26] = biological target: HIV-1 JR-CSF Env D167A (HIV-1 (isolate JR-CSF)) (UniProt P20871)
# [27] = biological target: HIV-1 JR-CSF Env R476A (HIV-1 (isolate JR-CSF)) (UniProt P20871)
# [28] = biological target: HIV-1 JR-CSF Env N160K (HIV-1 (isolate JR-CSF)) (UniProt P20871)
# [29] = biological target: HIV-1 JR-CSF Env I165A (HIV-1 (isolate JR-CSF)) (UniProt P20871)
# [30] = biological target: HIV-1 Env of isolate MGRM-D-028 (subtype D), on pseudovirus (HIV-1)
# [31] = biological target: HIV-1 Env of isolate MGRM-AE-005 (CRF01_AE), on pseudovirus (HIV-1)
# [32] = biological target: HIV-1 Env of isolate MGRM-C-017 (HIV-1)
# [33] = biological target: HIV-1 Env of isolate MGRM-Chronic-B-002 (HIV-1)
# [34] = biological target: HIV-1 Env of isolate MGRM-A-011 (clade A), on pseudovirus (HIV-1)
# [35] = biological target: HIV-1 Env of isolate 98IN022 (HIV-1)
# [36] = biological target: HIV-1 Env of isolate 93MW959 (HIV-1)
# [37] = biological target: HIV-1 Env of isolate MGRM-A-012 (clade A), on pseudovirus (HIV-1)
# [38] = biological target: HIV-1 Env of isolate MGRM-AG-006 (CRF_AG), on pseudovirus (HIV-1)
# 5345_I01 (PGT-137) (antibody), sequence (VH): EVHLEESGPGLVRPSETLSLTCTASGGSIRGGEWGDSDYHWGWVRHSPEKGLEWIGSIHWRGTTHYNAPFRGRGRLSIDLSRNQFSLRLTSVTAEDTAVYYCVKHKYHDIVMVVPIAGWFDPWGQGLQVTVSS
# 5345_I01 (PGT-137) (antibody), sequence (VL): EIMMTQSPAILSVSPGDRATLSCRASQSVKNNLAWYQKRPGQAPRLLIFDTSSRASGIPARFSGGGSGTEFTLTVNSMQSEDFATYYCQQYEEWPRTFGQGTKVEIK
# 5329_C19 (PGT-136) (antibody), sequence (VH): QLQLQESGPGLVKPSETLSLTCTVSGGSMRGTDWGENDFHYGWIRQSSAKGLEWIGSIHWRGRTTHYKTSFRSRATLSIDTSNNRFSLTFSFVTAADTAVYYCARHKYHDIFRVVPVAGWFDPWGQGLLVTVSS
# 5329_C19 (PGT-136) (antibody), sequence (VL): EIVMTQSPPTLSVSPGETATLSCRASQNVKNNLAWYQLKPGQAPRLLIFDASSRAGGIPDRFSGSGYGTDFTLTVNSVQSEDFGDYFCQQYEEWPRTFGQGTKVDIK
# PGT-142 (4995_E20) (antibody), sequence (VH): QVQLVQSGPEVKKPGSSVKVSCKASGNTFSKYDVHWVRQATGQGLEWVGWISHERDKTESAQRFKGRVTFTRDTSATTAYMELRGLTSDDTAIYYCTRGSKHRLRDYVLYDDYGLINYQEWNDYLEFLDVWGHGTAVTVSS
# PGT-142 (4995_E20) (antibody), sequence (VL): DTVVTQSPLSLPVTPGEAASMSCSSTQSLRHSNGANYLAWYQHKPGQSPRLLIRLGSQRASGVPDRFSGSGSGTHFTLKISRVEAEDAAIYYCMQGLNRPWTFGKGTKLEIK
# PGT-144 (4970_K22) (antibody), sequence (VH): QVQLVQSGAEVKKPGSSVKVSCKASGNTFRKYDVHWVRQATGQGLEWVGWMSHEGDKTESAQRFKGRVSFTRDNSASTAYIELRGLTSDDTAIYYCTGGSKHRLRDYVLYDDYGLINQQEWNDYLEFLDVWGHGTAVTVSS
# PGT-144 (4970_K22) (antibody), sequence (VL): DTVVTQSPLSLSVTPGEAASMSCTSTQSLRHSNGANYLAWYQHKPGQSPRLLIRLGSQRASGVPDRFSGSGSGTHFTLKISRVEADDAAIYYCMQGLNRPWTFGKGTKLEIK
# PGT-141 (4964_G22; 4993_K13) (antibody), sequence (VH): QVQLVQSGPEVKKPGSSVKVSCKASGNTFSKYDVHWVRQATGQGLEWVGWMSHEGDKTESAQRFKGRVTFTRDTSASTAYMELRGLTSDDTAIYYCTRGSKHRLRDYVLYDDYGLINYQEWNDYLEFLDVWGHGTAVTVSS
# PGT-143 (4980_N08) (antibody), sequence (VH): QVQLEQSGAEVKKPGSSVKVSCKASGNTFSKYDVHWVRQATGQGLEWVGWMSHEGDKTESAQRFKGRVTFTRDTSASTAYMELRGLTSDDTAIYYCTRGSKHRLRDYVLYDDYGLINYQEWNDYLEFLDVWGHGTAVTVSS
# PGT-143 (4980_N08) (antibody), sequence (VL): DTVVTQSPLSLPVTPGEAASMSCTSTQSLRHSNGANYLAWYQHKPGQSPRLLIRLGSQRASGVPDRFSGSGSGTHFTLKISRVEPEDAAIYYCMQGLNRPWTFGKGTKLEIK
Substance,neutralization IC50 [8] [µg/mL],"IC50 (µg/mL), pseudovirus neutralization [13] [µg/mL]",IC50 (µg/mL) neutralization [14] [µg/mL],IC50 (µg/mL) neutralization [15] [µg/mL],IC50 (µg/mL) neutralization [16] [µg/mL],"IC50 (µg/mL), pseudovirus neutralization [17] [µg/mL]",IC50 (µg/mL) neutralization [18] [µg/mL],IC50 (µg/mL) neutralization [19] [µg/mL],"IC50, pseudovirus neutralization [20] [µg/mL]","IC50 (µg/mL), pseudovirus neutralization [21] [µg/mL]",IC50 (µg/mL) neutralization [22] [µg/mL],"IC50 (µg/mL), pseudovirus neutralization [23] [µg/mL]","IC50, pseudovirus neutralization [24] [µg/mL]",Fold IC50 increase relative to wild-type [26] [fold],Fold IC50 increase relative to wild-type [27] [fold],Fold IC50 increase relative to wild-type [28] [fold],Fold IC50 increase relative to wild-type [29] [fold],also measured
1496_C09 (PG9) (TCN-109) (antibody),6.6,–,–,–,–,–,–,–,–,–,–,–,–,–,–,–,–,"IC50 (µg/mL), pseudovirus neutralization [1]: 16.2 µg/mL; IC50 (µg/ml), pseudovirus neutralization [2]: 11.2 µg/mL; IC50 (µg/ml), pseudovirus neutralization [3]: 0.03 µg/mL; neutralization IC50 [4]: 0.173 µg/mL; IC50 (µg/ml), pseudovirus neutralization [5]: 0.03 µg/mL; IC50 (µg/ml), pseudovirus neutralization [6]: 1.41 µg/mL; neutralization IC50 [7]: 24.9 µg/mL; IC50 [9]: 0.5 µg/mL; IC50 (µg/ml), pseudovirus neutralization [10]: 6.32 µg/mL; IC50 [11]: 0.19 µg/mL; IC50 (µg/ml), pseudovirus neutralization [12]: 0.1 µg/mL"
4838_L06 (PGT-121) (antibody),–,> 50,25.1,0.052,0.011,0.01,0.472,26.9,0.007,0.01,0.019,> 50,–,–,–,–,–,–
4858_P08 (PGT-123) (antibody),–,> 50,13.1,0.195,0.009,0.018,0.402,1,0.008,0.008,0.01,> 50,0.046,1.2,2,1,2.2,IC50 [25]: 0.111 µg/mL
4877_D15 (PGT-122) (antibody),–,> 50,> 50,0.102,0.02,0.007,2.22,> 50,0.013,0.021,0.022,> 50,0.079,–,–,–,–,IC50 [25]: 0.195 µg/mL
5114_A19 (PGT-128) (antibody),–,–,–,–,–,–,–,–,–,–,–,–,0.017,0.3,0.7,1,2.1,"IC50 [1]: > 50 µg/mL; IC50, pseudovirus neutralization [30]: > 50 µg/mL; IC50, single-round pseudovirus neutralization [31]: 0.032 µg/mL; IC50 [32]: 1.06 µg/mL; IC50 [33]: 0.036 µg/mL; IC50, single-round pseudovirus neutralization [34]: > 50 µg/mL; IC50 [35]: 0.014 µg/mL; IC50 [36]: 0.045 µg/mL; IC50, single-round pseudovirus neutralization [37]: 0.025 µg/mL; IC50, single-round pseudovirus neutralization [38]: 0.009 µg/mL"
5123_A06 (PGT-125) (antibody),–,> 50,> 50,> 50,1.82,> 50,14,> 50,0.008,0.201,0.008,> 50,> 50,1.7,1.9,0.5,2.3,IC50 [25]: > 50 µg/mL
5136_H01 (PGT-131) (antibody),–,–,–,–,–,–,–,–,–,–,–,–,7.75,1.2,1,0.4,2.4,"IC50 [1]: > 50 µg/mL; IC50, pseudovirus neutralization [30]: > 50 µg/mL; IC50, single-round pseudovirus neutralization [31]: 0.017 µg/mL; IC50 [32]: > 50 µg/mL; IC50 [33]: > 50 µg/mL; IC50, single-round pseudovirus neutralization [34]: > 50 µg/mL; IC50 [35]: > 50 µg/mL; IC50 [36]: > 50 µg/mL; IC50, single-round pseudovirus neutralization [37]: > 50 µg/mL; IC50, single-round pseudovirus neutralization [38]: 0.019 µg/mL"
5141_B17 (PGT-126) (antibody),–,> 50,3.14,> 50,0.033,0.023,0.196,> 50,0.013,0.046,0.011,0.792,17.1,1.6,1.5,0.5,2.5,IC50 [25]: > 50 µg/mL
5145_B14 (PGT-127) (antibody),–,> 50,> 50,> 50,0.532,0.015,7.57,> 50,0.017,0.067,0.057,6.02,19.3,1.6,1.2,0.8,1.7,IC50 [25]: > 50 µg/mL
5329_C19 (PGT-136) (antibody),–,–,–,–,–,–,–,–,–,–,–,–,> 50,–,–,–,–,"IC50 [1]: > 50 µg/mL; IC50, pseudovirus neutralization [30]: > 50 µg/mL; IC50, single-round pseudovirus neutralization [31]: > 50 µg/mL; IC50 [32]: > 50 µg/mL; IC50 [33]: > 50 µg/mL; IC50, single-round pseudovirus neutralization [34]: > 50 µg/mL; IC50 [35]: 13.6 µg/mL; IC50 [36]: > 50 µg/mL; IC50, single-round pseudovirus neutralization [37]: > 50 µg/mL; IC50, single-round pseudovirus neutralization [38]: 29.1 µg/mL"
5345_I01 (PGT-137) (antibody),–,–,–,–,–,–,–,–,–,–,–,–,> 50,–,–,–,–,"IC50 [1]: > 50 µg/mL; IC50, pseudovirus neutralization [30]: > 50 µg/mL; IC50, single-round pseudovirus neutralization [31]: > 50 µg/mL; IC50 [32]: > 50 µg/mL; IC50 [33]: > 50 µg/mL; IC50, single-round pseudovirus neutralization [34]: > 50 µg/mL; IC50 [35]: 0.408 µg/mL; IC50 [36]: > 50 µg/mL; IC50, single-round pseudovirus neutralization [37]: > 50 µg/mL; IC50, single-round pseudovirus neutralization [38]: 28.3 µg/mL"
PGT-141 (4964_G22; 4993_K13) (antibody),> 50,–,–,–,–,–,–,–,–,–,–,–,–,–,–,–,–,–
PGT-142 (4995_E20) (antibody),> 50,–,–,–,–,–,–,–,–,–,–,–,–,–,–,–,–,–
PGT-143 (4980_N08) (antibody),> 50,–,–,–,–,–,–,–,–,–,–,–,–,–,–,–,–,–
PGT-144 (4970_K22) (antibody),> 50,–,–,–,–,–,–,–,–,–,–,–,–,–,–,–,–,–
PGV04 (antibody),0.333,–,–,–,–,–,–,–,–,–,–,–,–,–,–,–,–,"IC50 (µg/mL), pseudovirus neutralization [1]: 0.125 µg/mL; IC50 (µg/mL), pseudovirus neutralization [25]: 0.02 µg/mL"
VRC01 (antibody),0.548,–,–,–,–,–,–,–,–,–,–,–,–,–,–,–,–,"IC50, pseudovirus neutralization [1]: 0.216 µg/mL; IC50, pseudovirus neutralization [25]: 0.056 µg/mL; IC50 [33]: 0.117 µg/mL; neutralization IC50 [35]: 0.342 µg/mL; neutralization IC50 [36]: 0.053 µg/mL"
